Data reported in US11306156.
Blank lines part the entries; values can stand above or below the substance they belong to.

Assays:
[1] = molecular target: D3H44 Fab heavy chain A139C_C233S; assay: LCCA, L1:L2 DNA 1:9 normalised to 1:1, SPR of light chain tags; competitor m42
[2] = molecular target: D3H44 Fab heavy chain A139C_C233S; assay: LCCA, L1:L2 DNA 1:3 normalised to 1:1, SPR of light chain tags; competitor m42
[3] = molecular target: D3H44 Fab heavy chain L143E_K145T_S188L; assay: LCCA, L1:L2 DNA 1:3 normalised to 1:1, SPR of light chain tags; competitor m34
[4] = molecular target: D3H44 Fab heavy chain L143K; assay: as above
[5] = molecular target: D3H44 Fab heavy chain L143R; assay: LCCA, L1:L2 DNA 1:3 normalised to 1:1, SPR of light chain tags; competitor m33
[6] = molecular target: D3H44 Fab heavy chain L143E_K145T_S188L; assay: as above
[7] = molecular target: D3H44 Fab heavy chain L143R; assay: LCCA, L1:L2 DNA 1:3 normalised to 1:1, SPR of light chain tags; competitor m34
[8] = molecular target: D3H44 Fab heavy chain L124A_S186K; assay: LCCA, L1:L2 DNA 1:3 normalised to 1:1, SPR of light chain tags; competitor m33
[9] = molecular target: D3H44 Fab heavy chain L143E_K145T; assay: LCCA, L1:L2 DNA 1:3 normalised to 1:1, SPR of light chain tags; competitor m35
[10] = molecular target: D3H44 Fab heavy chain L143E_K145T_S188L; assay: LCCA, L1:L2 DNA 1:3 normalised to 1:1, SPR of light chain tags; competitor m38
[11] = molecular target: D3H44 Fab heavy chain L143E_K145T_S188L; assay: LCCA, L1:L2 DNA 1:3 normalised to 1:1, SPR of light chain tags; competitor m40
[12] = molecular target: D3H44 Fab heavy chain L143E_K145T_S188L; assay: LCCA, L1:L2 DNA 1:3 normalised to 1:1, SPR of light chain tags; competitor m37
[13] = molecular target: D3H44 Fab heavy chain L143E_K145T; assay: LCCA, L1:L2 DNA 1:3 normalised to 1:1, SPR of light chain tags; competitor m32
[14] = molecular target: D3H44 Fab heavy chain F122C_C233S; assay: LCCA, L1:L2 DNA 1:3 normalised to 1:1, SPR of light chain tags; competitor m42
[15] = molecular target: D3H44 Fab heavy chain S186R; assay: LCCA, L1:L2 DNA 1:3 normalised to 1:1, SPR of light chain tags; competitor m33
[16] = molecular target: D3H44 Fab heavy chain L143E_K145T; assay: as above
[17] = molecular target: D3H44 Fab heavy chain S186R; assay: LCCA, L1:L2 DNA 1:3 normalised to 1:1, SPR of light chain tags; competitor m31
[18] = molecular target: D3H44 Fab heavy chain L143E_K145T; assay: as above
[19] = molecular target: D3H44 Fab heavy chain Q179R; assay: as above
[20] = molecular target: D3H44 Fab heavy chain Q179K; assay: as above
[21] = molecular target: D3H44 Fab heavy chain P175C_C233S; assay: LCCA, L1:L2 DNA 1:9 normalised to 1:1, SPR of light chain tags; competitor m42
[22] = molecular target: D3H44 Fab heavy chain P175C_C233S; assay: LCCA, L1:L2 DNA 1:3 normalised to 1:1, SPR of light chain tags; competitor m42
[23] = molecular target: D3H44 Fab heavy chain S188L; assay: as above
[24] = molecular target: D3H44 Fab heavy chain S188G; assay: as above
[25] = molecular target: D3H44 Fab heavy chain L124W_L143F; assay: LCCA, L1:L2 DNA 1:3 normalised to 1:1, SPR of light chain tags; competitor m50
[26] = molecular target: D3H44 Fab heavy chain L124A; assay: as above
[27] = molecular target: D3H44 Fab heavy chain of LCCA set 6036; assay: as above
[28] = molecular target: D3H44 Fab heavy chain A139G_F174V_V190A; assay: LCCA, L1:L2 DNA 1:9 normalised to 1:1, SPR of light chain tags; competitor m45
[29] = molecular target: D3H44 Fab heavy chain S188L_V190Y; assay: as above
[30] = molecular target: D3H44 Fab heavy chain A139G_F174V_V190A; assay: LCCA, L1:L2 DNA 1:3 normalised to 1:1, SPR of light chain tags; competitor m45
[31] = molecular target: D3H44 Fab heavy chain S188L_V190Y; assay: as above
[32] = molecular target: D3H44 Fab heavy chain L124W_L143F; assay: LCCA, L1:L2 DNA 1:3 normalised to 1:1, SPR of light chain tags; competitor m51
[33] = molecular target: D3H44 Fab heavy chain L124A; assay: as above
[34] = molecular target: D3H44 Fab heavy chain of LCCA set 6036; assay: as above
[35] = molecular target: D3H44 Fab heavy chain S188L; assay: LCCA, L1:L2 DNA 1:3 normalised to 1:1, SPR of light chain tags; competitor m48
[36] = molecular target: D3H44 Fab heavy chain S188L; assay: LCCA, L1:L2 DNA 1:3 normalised to 1:1, SPR of light chain tags; competitor m47
[37] = molecular target: D3H44 Fab heavy chain S188L_V190F; assay: LCCA, L1:L2 DNA 1:9 normalised to 1:1, SPR of light chain tags; competitor m49
[38] = molecular target: D3H44 Fab heavy chain S188L_V190F; assay: LCCA, L1:L2 DNA 1:3 normalised to 1:1, SPR of light chain tags; competitor m49

Substance: D3H44 light chain Q124E_V133D_S176L
H1L1:H1L2 normalized median ratio [3]: 26% | H2L2:H2L1 normalized median ratio [4]: 90%

Substance: D3H44 light chain Q124E_V133E
H2L2:H2L1 normalized median ratio [5]: 96% | H1L1:H1L2 normalized median ratio [6]: 49%

Substance: D3H44 light chain Q124E_V133E_S176L
H2L2:H2L1 normalized median ratio [7]: 86% | H1L1:H1L2 normalized median ratio [3]: 31%

Substance: D3H44 light chain Q124R
H1L1:H1L2 normalized median scalar value ln(r1/f1) [9]: 0.71 | H1L1:H1L2 normalized median scalar value ln(r1/f1) [10]: 1.06 | H1L1:H1L2 normalized median scalar value ln(r1/f1) [11]: 0.82

Substance: D3H44 light chain Q124R_Q160K_T178R
H1L1:H1L2 normalized median scalar value ln(r1/f1) [12]: 0.03 | H1L1:H1L2 normalized median scalar value ln(r1/f1) [13]: -0.14

Substance: D3H44 light chain S121C_C214S
H1L1:H1L2 normalized median scalar value ln(r1/f1) [14]: 3.12

Substance: D3H44 light chain S162C_C214S
H1L1:H1L2 normalized median scalar value ln(r1/f1) [21]: 1.24 | H1L1:H1L2 normalized median scalar value ln(r1/f1) [22]: 1.84

Substance: D3H44 light chain V133A
H2L2:H2L1 normalized median ratio [25]: 56% | H1L1:H1L2 normalized median ratio [26]: 59% | H2L2:H2L1 normalized median ratio [27]: 59%

Substance: D3H44 light chain V133W
H2L2:H2L1 normalized median ratio [32]: 44% | H1L1:H1L2 normalized median ratio [33]: 41% | H1L1:H1L2 normalized median scalar value ln(r1/f1) [33]: -0.38 | H2L2:H2L1 normalized median ratio [34]: 41%

Substance: D3H44 light chain, wild type
H2L2:H2L1 normalized median ratio [35]: 61% | H2L2:H2L1 normalized median ratio [36]: 93% | H2L2:H2L1 normalized median ratio [37]: 72% | H2L2:H2L1 normalized median ratio [38]: 61%

Second part, the substance after the results:

H1L1:H1L2 normalized median scalar value ln(r1/f1) [1]: 1.39 | H1L1:H1L2 normalized median scalar value ln(r1/f1) [2]: 1.37
Substance: D3H44 light chain F116C_C214S

H1L1:H1L2 normalized median scalar value ln(r1/f1) [8]: 2.54
Substance: D3H44 light chain Q124E_V133W_T180E

H2L2:H2L1 normalized median ratio [15]: 96% | H1L1:H1L2 normalized median ratio [16]: 53% | H2L2:H2L1 normalized median ratio [17]: 95% | H1L1:H1L2 normalized median ratio [18]: 54% | H2L2:H2L1 normalized median ratio [19]: 97% | H2L2:H2L1 normalized median ratio [20]: 97%
Substance: D3H44 light chain S131E

H2L2:H2L1 normalized median ratio [23]: 7% | H1L1:H1L2 normalized median ratio [24]: 22% | H1L1:H1L2 normalized median scalar value ln(r1/f1) [24]: -1.25
Substance: D3H44 light chain S176L

H1L1:H1L2 normalized median ratio [28]: 11% | H2L2:H2L1 normalized median ratio [29]: 62% | H1L1:H1L2 normalized median ratio [30]: 26% | H2L2:H2L1 normalized median ratio [31]: 58%
Substance: D3H44 light chain V133S
